Data reported in paper PMC8798045.

Legend:
[1] = molecular target: Microtubules polymerized from bovine brain tubulin (bovine) (UniProt Q6B856); assay: single-molecule TIRF microscopy (dwell times); 5 nM 647-SSNA1 (100% labeled) alone on surface-bound GMPCPP-stabilized microtubule seeds; 0-5 min after SSNA1 addition; 5 fps; 35°C
[2] = molecular target: Microtubules polymerized from bovine brain tubulin (bovine) (UniProt Q6B856); assay: TIRF microscopy; dynamic microtubules grown from GMPCPP seeds with 9 µM tubulin and 5 µM 488-SSNA1 (7% labeled), imaged 60 min; SSNA1 intensity at the microtubule end region; 35°C
[3] = molecular target: Microtubules polymerized from bovine brain tubulin (bovine) (UniProt Q6B856); assay: single-molecule TIRF microscopy (dwell times); 5 nM 647-SSNA1 (100% labeled) alone on surface-bound GMPCPP-stabilized microtubule seeds; 5-10 min after SSNA1 addition; 5 fps; 35°C
[4] = molecular target: Microtubules polymerized from bovine brain tubulin (bovine) (UniProt Q6B856); assay: single-molecule TIRF microscopy (dwell times); spiking: 5 nM 647-SSNA1 with 1 µM 488-SSNA1 on surface-bound GMPCPP-stabilized microtubule seeds; 0-5 min after SSNA1 addition; 5 fps; 35°C
[5] = molecular target: Microtubules polymerized from bovine brain tubulin (bovine) (UniProt Q6B856); assay: single-molecule TIRF microscopy (dwell times); spiking: 5 nM 647-SSNA1 with 1 µM 488-SSNA1 on surface-bound GMPCPP-stabilized microtubule seeds; 5-10 min after SSNA1 addition; 5 fps; 35°C

mean single-molecule dwell time [1]: 12 s
SSNA1 fluorescence intensity at the microtubule end region, 3 min [2]: 0.33 a.u.
mean single-molecule dwell time [3]: 10 s
association rate (events µm^–1 nM^–1 s^–1) [4]: 0.00096
mean single-molecule dwell time [4]: 19 s
association rate (events µm^–1 nM^–1 s^–1) [5]: 0.0024
mean single-molecule dwell time [5]: 39 s
Substance: Human 6His-SSNA1 (Sjögren's syndrome nuclear autoantigen-1) (from UniProt O43805 1-119) (natural protein)
